Laboratory results published in patent publication US6610479.

Key:
[1] = target: streptavidin (on Dynabeads) (UniProt P22629)
[2] = target: human serum albumin (HSA) (UniProt P02768)
[3] = target: human IgG (on Sepharose, Pharmacia) (human); test: cell-based or functional assay

Chain of UniProt P22629 (P22629 whole entry, looked up): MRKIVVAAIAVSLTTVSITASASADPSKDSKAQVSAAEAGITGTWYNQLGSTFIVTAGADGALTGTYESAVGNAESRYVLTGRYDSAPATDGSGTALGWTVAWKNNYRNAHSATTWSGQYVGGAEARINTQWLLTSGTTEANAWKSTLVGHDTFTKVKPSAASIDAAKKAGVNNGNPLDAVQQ

Substance | hot-start effect in kRAS PCR (primer-dimer formation) [1] | hot start PCR of K-ras (primer-dimer formation) [2] | hot-start effect in kRAS PCR (primer-dimer formation) [2] | primer extension (190 nt product) at 60° C., immobilized enzyme [2] | relative polymerase activity at 45-75° C. and after 95° C. [2] | Peak area of the 190-bp extension product, heat-released enzyme (95° C.-treated Z-ΔTaq-human IgG-Sepharose) [3] | Peak area of the 190-bp extension product, immobilized enzyme (polymerase activity at 50° C.) [3] | increase of the area of the 190-peak, free or heat-released enzyme against enzyme on beads heated only to 50° C. [3] [times]
TagTaq fusion protein (Bio-His6-ABP fused to Taq DNA polymerase I residues 3-832) | All the immobilised enzymes show hot-start effect in PCR with regard to preventing primer-dimer formation | using either a conventional hot start procedure (lane 8) or immobilized TagTaq polymerase (lanes 1 to 3), high yields of essentially pure, full-length PCR products free from primer-dimers are obtained | All the immobilised enzymes show hot-start effect in PCR with regard to preventing primer-dimer formation | TagTaq protein: HSA-Sepharose incubated with the substrate at the same temperature resulted in only very small amounts of the 190 nt extension product | TagTaq indeed is active in the presence of HSA-Sepharose, but only after incubation at a temperature high enough to break the ABP-HSA affinity interaction | – | – | –
Z-ΔTaq fusion protein (from UniProt P0AD92 1-8; P38507 212-269; P19821 236-832) (enzyme) | – | – | – | – | – | 8380 | 594 | > 15
